The record followed here is patent US20150044236A1.

A word on the koff: it is the rate constant with which the complex falls apart. One may read the kon as the second-order rate constant of association.

No end group written: not given here.

The target in experiment [1] is human Kv1.3 voltage-gated potassium channel (human) (UniProt P22001). Kind of experiment: cell-based or functional assay.
For experiment [2], the target named is human Kv1.1 voltage-gated potassium channel (human) (UniProt Q09470). Kind of experiment: cell-based or functional assay.
human Kv1.1 voltage-gated potassium channel (human), sequence (Q09470 whole entry): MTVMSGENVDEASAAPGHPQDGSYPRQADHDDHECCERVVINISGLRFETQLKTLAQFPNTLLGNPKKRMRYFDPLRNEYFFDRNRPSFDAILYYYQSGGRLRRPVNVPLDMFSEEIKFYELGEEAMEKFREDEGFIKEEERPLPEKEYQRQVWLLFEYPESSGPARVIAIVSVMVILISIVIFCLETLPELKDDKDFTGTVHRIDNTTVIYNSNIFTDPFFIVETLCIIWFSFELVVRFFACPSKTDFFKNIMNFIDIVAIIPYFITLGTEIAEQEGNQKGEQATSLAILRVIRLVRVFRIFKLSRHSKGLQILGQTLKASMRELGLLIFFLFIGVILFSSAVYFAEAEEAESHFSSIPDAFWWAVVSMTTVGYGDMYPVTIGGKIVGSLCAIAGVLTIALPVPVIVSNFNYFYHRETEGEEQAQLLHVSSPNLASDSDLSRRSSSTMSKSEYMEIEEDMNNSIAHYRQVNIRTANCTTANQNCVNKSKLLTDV
The target in experiment [3] is DNP(3)-BSA (2,4-dinitrophenol conjugated to bovine serum albumin, 3 DNP moieties per BSA) (bovine) (UniProt P02769). Kind of experiment: BIAcore SPR; antibody captured on anti-human IgG Fc surface, DNP(3)-BSA injected (0.78-100 nM); apparent constants. (In SPR one partner is held on a chip, and binding of the other changes the refractive index at the surface.)
DNP(3)-BSA (2,4-dinitrophenol conjugated to bovine serum albumin, 3 DNP moieties per BSA) (bovine), sequence (P02769 25-607 limits assumed): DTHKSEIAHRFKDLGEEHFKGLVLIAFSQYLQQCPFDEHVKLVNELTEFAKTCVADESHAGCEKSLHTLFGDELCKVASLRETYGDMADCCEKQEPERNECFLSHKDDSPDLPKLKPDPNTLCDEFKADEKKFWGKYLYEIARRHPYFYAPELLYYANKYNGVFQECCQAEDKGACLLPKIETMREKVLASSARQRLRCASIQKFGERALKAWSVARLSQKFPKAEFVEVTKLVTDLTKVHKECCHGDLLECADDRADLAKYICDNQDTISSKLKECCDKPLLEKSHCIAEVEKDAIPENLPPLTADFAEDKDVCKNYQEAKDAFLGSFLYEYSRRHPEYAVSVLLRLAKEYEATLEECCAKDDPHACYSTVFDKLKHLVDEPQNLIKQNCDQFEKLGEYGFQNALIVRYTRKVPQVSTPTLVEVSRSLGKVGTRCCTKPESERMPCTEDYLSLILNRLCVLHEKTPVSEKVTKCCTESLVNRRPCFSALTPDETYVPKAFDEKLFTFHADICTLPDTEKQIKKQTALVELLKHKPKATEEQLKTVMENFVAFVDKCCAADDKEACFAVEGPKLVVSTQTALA
Experiment [4] has as its target DNP(31)-BSA (2,4-dinitrophenol conjugated to bovine serum albumin, 31 DNP moieties per BSA) (bovine) (UniProt P02769). Kind of experiment: BIAcore SPR; antibody captured on anti-human IgG Fc surface, DNP(31)-BSA injected (0.78-100 nM); apparent constants.
For experiment [5], the target named is DNP(3)-BSA (2,4-dinitrophenol conjugated to bovine serum albumin, 3 DNP moieties per BSA) (bovine) (UniProt P02769). Kind of experiment: BIAcore SPR; antibody captured on anti-human IgG Fc surface, DNP(3)-BSA injected (0.78-100 nM); apparent constants; DNP(3)-BSA, not DNP(31)-BSA.
Experiment [6] addresses DNP(31)-BSA (2,4-dinitrophenol conjugated to bovine serum albumin, 31 DNP moieties per BSA) (bovine) (UniProt P02769). Kind of experiment: BIAcore SPR; antibody captured on anti-human IgG Fc surface, DNP(31)-BSA injected (0.39-50 nM); apparent constants.

DNP(31)-BSA (2,4-dinitrophenol conjugated to bovine serum albumin, 31 DNP moieties per BSA) (bovine), sequence (P02769 25-607 limits assumed): as above
human Kv1.3 voltage-gated potassium channel (human), sequence (P22001 whole entry): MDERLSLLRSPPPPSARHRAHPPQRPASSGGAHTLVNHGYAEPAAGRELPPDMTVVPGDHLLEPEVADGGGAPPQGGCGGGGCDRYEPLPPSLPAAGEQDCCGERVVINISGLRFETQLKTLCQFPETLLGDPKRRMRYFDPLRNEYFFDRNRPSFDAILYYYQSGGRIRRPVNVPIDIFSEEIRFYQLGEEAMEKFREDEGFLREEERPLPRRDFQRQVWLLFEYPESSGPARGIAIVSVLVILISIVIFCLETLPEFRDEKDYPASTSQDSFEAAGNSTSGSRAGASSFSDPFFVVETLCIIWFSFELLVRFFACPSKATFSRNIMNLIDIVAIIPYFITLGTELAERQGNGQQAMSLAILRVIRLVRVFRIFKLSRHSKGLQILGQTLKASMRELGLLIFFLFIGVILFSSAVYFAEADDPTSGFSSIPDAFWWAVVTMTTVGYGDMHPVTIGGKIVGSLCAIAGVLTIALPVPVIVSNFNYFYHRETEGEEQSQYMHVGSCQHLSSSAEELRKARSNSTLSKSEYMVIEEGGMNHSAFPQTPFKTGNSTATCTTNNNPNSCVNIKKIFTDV

In experiment [1], 20 kDa-PEG-[Lys16]ShK (peptide) yielded a Potency Relative to ShK (WB, IL2) of 1.37 fold.
In experiment [1], “Monovalent Fc/Fc-L10-ShK[2-35] heterodimer (IgG1) (Fc fusion)” had a Potency Relative to ShK (WB, IL2) of 32.1 fold; a WB (IFNg) IC50 of 5.2 nM; a WB (IL-2) IC50 of 2.15 nM.
In turn, 20 kDa-PEG-ShK (peptide) showed a Kv1.1 IC50 (asterisk: whole cell patch clamp) in experiment [2] of 1.63 nM. Moreover, in experiment [1], the Kv1.3 IC50 (asterisk: whole cell patch clamp) came to 0.299 nM and the Potency Relative to ShK (WB, IL2) is 5.67 fold.

B1: anti-DNP antibody 3A1 (purified from hybridoma) (antibody, human IgG2, kappa, V domains shown)
VH: QVQLQESGPGLVKPSETLSLTCTVSGGSISHYYWSWIRQPPGKGLGWIGYIYYSGSTNYNPSLKSRVTISVDTSKNQFSLKLTSVTAADTAVYYCARARGDGYNYPDAFDIWGQGTMVTVSS
VL: DIQMTQSPSSVSASVGDRVTITCRASQGISNWLAWYQRKPGKAPKLLIYAASSLQSGVPSRFSGSGSGTDFTLTISSLQPEDFAAYYCQQASSFPWTFGQGTRVEIKR
For B1, the Kd in experiment [3] turned out to be 526 nM; in experiment [4], 9 nM. Moreover, the koff in experiment [3] stood at 0.00065 s⁻¹; in experiment [4], 0.00031 s⁻¹. For the same molecule, the figures for the kon in experiment [4] and in experiment [5] were 34000 M⁻¹ s⁻¹ and 1200 M⁻¹ s⁻¹, respectively.

B2: Bivalent Fc-L10-ShK[2-35] homodimer (IgG1) (Fc fusion)
chain: GGGGSGGGGSSCIDTIPKSRCTAFQCKHSMKYRLSFCRKTCGTC
modifications: not fully specified (N-terminus, bridges); ends and bridges not checked; also: bivalent homodimer via IgG1 Fc
Turning to B2, the Kv1.1 IC50 (asterisk: whole cell patch clamp) in experiment [2] worked out at 0.411 nM. In experiment [1], this molecule gave a Kv1.3 IC50 (asterisk: whole cell patch clamp) of 0.116 nM; a Potency Relative to ShK (WB, IL2) of 8.73 fold; a WB (IFNg) IC50 of 2.29 nM; a WB (IL-2) IC50 of 0.585 nM.

B3: Bivalent Fc-L10-ShK[1-35] homodimer (IgG1) (Fc fusion)
chain: GGGGSGGGGSRSCIDTIPKSRCTAFQCKHSMKYRLSFCRKTCGTC
modifications: not fully specified (N-terminus, bridges); ends and bridges not checked; also: bivalent homodimer via IgG1 Fc
On to B3, for which the Kv1.1 IC50 (asterisk: whole cell patch clamp) in experiment [2] turned out to be 0.067 nM. In addition, in experiment [1], the Kv1.3 IC50 (asterisk: whole cell patch clamp) came to 0.015 nM; the Potency Relative to ShK (WB, IL2) stood at 5.76 fold; the WB (IFNg) IC50 is 0.32 nM; the WB (IL-2) IC50 came to 0.386 nM.

B4: anti-DNP antibody 3B1 (purified from hybridoma) (antibody, human IgG2, kappa, V domains shown)
VH: QVQLQESGPGLVKPSETLSLTCTVSGGSISSYYWSWIRQPPGKGLEWIGYIYYSGNTNSNPSLKSRVTISVDTSKNQFSLKLSSVTAADTAVYYCARTYYDSSGYYYRAFDIWGQGTMVTVSS
VL: DIQMTQSPSSLSASEGDRVTITCRASQGIRNDLGWYQQKPGKAPKRLIYAASSLQSGVPLRFSGSGSGTEFTLTISSLQPEDFATYYCLQYNSYPWTFGQGTKVEIKR
Consider B4, for which, in experiment [3], the Kd amounted to 3 nM, the koff amounted to 0.00036 s⁻¹ and the kon was 140000 M⁻¹ s⁻¹. In experiment [4], the Kd was 0.2 nM, the koff was determined as 5.8e-05 s⁻¹ and the association rate constant (kon) amounted to 370000 M⁻¹ s⁻¹.

B5: anti-DNP antibody 3B1-G2 (recombinant, CHO) (antibody, human IgG2, kappa, V domains shown)
VH: QVQLQESGPGLVKPSETLSLTCTVSGGSISSYYWSWIRQPPGKGLEWIGYIYYSGNTNSNPSLKSRVTISVDTSKNQFSLKLSSVTAADTAVYYCARTYYDSSGYYYRAFDIWGQGTMVTVSS
VL: DIQMTQSPSSLSASEGDRVTITCRASQGIRNDLGWYQQKPGKAPKRLIYAASSLQSGVPLRFSGSGSGTEFTLTISSLQPEDFATYYCLQYNSYPWTFGQGTKVEIKR
As for B5, in experiment [6], the Kd is 0.7 nM, the koff is 0.00031 s⁻¹ and the kon amounted to 420000 M⁻¹ s⁻¹.
